Laboratory results reported in article PMC5500506.

System: T1, GdmRIII (Streptomyces autolyticus CGMCC0516), ORF:755639c7
T1 sequence: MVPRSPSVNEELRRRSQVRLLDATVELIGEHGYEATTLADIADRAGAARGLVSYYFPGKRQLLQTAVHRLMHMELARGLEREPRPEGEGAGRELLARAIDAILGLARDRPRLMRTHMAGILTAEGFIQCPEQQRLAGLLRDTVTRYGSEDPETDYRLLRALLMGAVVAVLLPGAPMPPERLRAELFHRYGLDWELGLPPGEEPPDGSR
Experiment: EMSA
Details: EMSA: 10 mM Tris-HCl pH 7.5, 50 mM NaCl, 10 mM MgCl2, 1 mM EDTA, 1 mM DTT, 5% glycerol, 0.1 ug/ul poly(dI-dC), 0.3 nM DNA; temperature not given

binding, binds:
AGGAGCTGCCCGACTGGCGGTCCTTCTGGGAGCTGCCGCACGACATCGTCGATGTGCGCGGCAACCACTTCACCATGATGGAGGACCACTCCCTCCCCACCGCCCAGGCCATCGAGGACTGGCTGGAGCGACT (double strand) [elaF promoter]
GCGACGTCCACCGCCGTCTCCTTCCCGCTCATTCGCCCGCCAGGATCAGATCGACCGTGTCCTGGAACTCGTCCGCCTTCACCAGCACCTTGGTGCGCTCCACCCCGTCCTCGACGGTGAAGCAGCGCCTGCCGATCAGCACGATCTTTCCGTTGTCCGTGGCCCGGCTGCGGAAGGTGGTCCCGGCGAGCACCGAGTCCTGTGCGTAGTCGTCCAGGCTGTCCAGCCGCACCGCGTCCCAGCCGGACGGGTCGGCCAGCTCCGGCCGGAACCGGTACACCGGCTGCCAGCCGCTCTC (double strand) [gdmM promoter]
GCTCACCGACCCCGCGCACGAGGTGCTGGTCATCACGATGGCCGACCGGTTCGGCCCGCACGGCGCCGTCGGCATCGTGCTGCTGGAACGCCACCCGGCGGTGTGGCATCTGAAACTGCTCGCCACCTCCTGCCGTGTGGTCTCCTACGGCGCCGGGTCCACCCTGCTGAACTGGCTGGCCGACCAGGCGGCGCGTGCCGGGGTGCATCTGGCCGCCGACTTCCGGCGCACCGACCGCAACCGGATGATGGAGGTCGCCTACCGCTTCGCCGGGTTCGCCGACGCCGACTGCGCCTGCAC (double strand) [gdmN promoter]
